Test results from publication PMC7797001 (Molecular cell, 2020).

B1: SP-BM purified from bovine lungs (natural protein, UniProt P15781 188-266, looked up)
chain: FPIPIPYCWLCRTLIKRIQAVIPKGVLAMTVAQVCHVVPLLVGGICQCLVERYSVILLDTLLGRMLPQLVCGLVLRCSS

Assays:
[1] = biological target: SP-BM generated from human proSP-B by proteinase K (human) (UniProt P07988); experiment: reducing and non-reducing SDS-PAGE
non-reducing SDS-PAGE = biological target: the molecule itself; experiment: non-reducing SDS-PAGE

Molecule	stoichiometry N [1]	stoichiometry N (non-reducing SDS-PAGE)
SP-BM generated from human proSP-B by proteinase K (from UniProt P07988 201-279) (domain or fragment)	2	–
B1	–	2
